Data as given in publication PMC2952587, “Identification of the Essential Brucella melitensis Porin Omp2b as a Suppressor of Bax-Induced Cell Death in Yeast in a Genome-Wide Screening” (PLoS ONE, 2010).

Target: the molecule itself
Experiment: semi-denaturing gel with Western blot

B1: Brucella melitensis porin Omp2b (natural protein)
chain: ADAIVAPEPEAVEYVRVCDAYGAGYFYIPGTEICLRVHGYVRYDVKGGDDVYSGTDRNGWDKGARFALRVSTGSETELGTLKTFTELRFNYAANNSGVDGKYGNETSSGTVMEFAYIQLGGLRVGIDESEFHTFTGYLGDVINDDVISAGSYRTGKISYTFTGGNGFSAVIALEQGGDNDGGYTGTTNYHIDGYMPDVVGGLKYAGGWGSIAGVVAYDSVIEEWAAKVRGDVNITDQFSVWLQGAYSSAATPDQNYGQWGGDWAVWGGLKYQATQKAAFNLQAAHDDWGKTAVTANVAYELVPGFTVTPEVSYTKFGGEWKNTVAEDNAWGGIVRFQRSF
notes: also called BMEI1305
For B1, the “stoichiometry N” value was 3.
